The values below come from patent US20200222503A1.

In assay [1] the target is PD-L2-His (Example 11) (Mus musculus (Mouse)) (UniProt Q9WUL5). The assay is described as follows: SPR, BioRad ProteOn XPR 360, His-tagged target on chip. Background: Surface plasmon resonance follows binding to a sensor surface in real time, without labels.
Assay [2] addresses mPD-L1-His (murine) (UniProt Q9EP73). Described as above.
In assay [3] the target is FcRn. The assay is described as follows: SPR.
Assay [4] concerns the target FcγR1A. The assay is described as follows: SPR.
In assay [5] the target is FcRn-His (Example 11) (Mus musculus (Mouse)) (UniProt Q61559). The assay is described as follows: SPR, BioRad ProteOn XPR 360, His-tagged target on chip.
For assay [6], the target named is OX40-His (Example 11) (Mus musculus (Mouse)) (UniProt P47741). Described as above.
OX40-His (Example 11) (Mus musculus (Mouse)), sequence (P47741 20-211 limits assumed, form in doubt): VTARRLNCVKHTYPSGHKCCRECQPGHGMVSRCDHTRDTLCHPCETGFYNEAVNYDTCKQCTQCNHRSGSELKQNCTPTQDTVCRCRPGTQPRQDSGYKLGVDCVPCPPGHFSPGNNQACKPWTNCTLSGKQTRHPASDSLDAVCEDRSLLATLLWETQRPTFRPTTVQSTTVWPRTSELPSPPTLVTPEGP

mPD-L1-His (murine), sequence (Q9EP73 19-238 limits assumed): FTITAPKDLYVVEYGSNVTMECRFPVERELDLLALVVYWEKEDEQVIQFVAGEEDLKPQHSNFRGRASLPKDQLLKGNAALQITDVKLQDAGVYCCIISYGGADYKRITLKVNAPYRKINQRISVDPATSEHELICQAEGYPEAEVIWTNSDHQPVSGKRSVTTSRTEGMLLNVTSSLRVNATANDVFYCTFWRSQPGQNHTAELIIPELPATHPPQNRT
OX40L-Fc (recombinant control protein, Example 11) (Fc fusion), sequence (P43488 51-198): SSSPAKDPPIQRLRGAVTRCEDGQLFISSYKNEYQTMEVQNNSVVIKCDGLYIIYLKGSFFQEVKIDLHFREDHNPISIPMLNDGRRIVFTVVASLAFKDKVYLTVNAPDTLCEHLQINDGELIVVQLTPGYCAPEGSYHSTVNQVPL
PD-L2-His (Example 11) (Mus musculus (Mouse)), sequence (Q9WUL5 20-221 limits assumed, form in doubt): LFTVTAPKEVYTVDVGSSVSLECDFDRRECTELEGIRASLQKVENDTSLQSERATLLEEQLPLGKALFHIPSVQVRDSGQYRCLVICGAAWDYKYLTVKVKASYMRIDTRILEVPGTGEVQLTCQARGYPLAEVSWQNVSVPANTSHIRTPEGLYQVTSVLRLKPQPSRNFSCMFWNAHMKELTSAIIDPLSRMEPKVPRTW
FcRn-His (Example 11) (Mus musculus (Mouse)), sequence (Q61559 22-297 limits assumed, form in doubt, chain 1 of 2): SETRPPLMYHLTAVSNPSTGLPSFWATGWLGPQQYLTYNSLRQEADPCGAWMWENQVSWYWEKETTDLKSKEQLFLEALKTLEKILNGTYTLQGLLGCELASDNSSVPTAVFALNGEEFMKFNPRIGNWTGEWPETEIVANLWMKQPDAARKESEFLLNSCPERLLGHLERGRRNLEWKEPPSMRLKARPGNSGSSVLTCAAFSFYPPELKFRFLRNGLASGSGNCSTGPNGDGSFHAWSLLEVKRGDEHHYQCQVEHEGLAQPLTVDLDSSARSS
FcRn-His (Example 11) (Mus musculus (Mouse)), sequence (beta, as listed by the source limits assumed, form in doubt, chain 2 of 2): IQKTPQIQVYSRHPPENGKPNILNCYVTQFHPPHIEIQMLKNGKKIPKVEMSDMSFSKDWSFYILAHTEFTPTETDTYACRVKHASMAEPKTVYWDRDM
PD1-Fc (recombinant control protein, Example 11) (Fc fusion), sequence (Q02242 25-169): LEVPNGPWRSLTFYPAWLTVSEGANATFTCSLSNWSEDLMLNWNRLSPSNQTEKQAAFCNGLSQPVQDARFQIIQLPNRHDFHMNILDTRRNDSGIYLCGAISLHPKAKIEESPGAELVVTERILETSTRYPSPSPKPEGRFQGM

“PD1-Fc (recombinant control protein, Example 11) (Fc fusion)”: in assay [1], the Kd (as a rule, the free concentration of one partner at which half of the binding sites on the other are occupied at equilibrium, for simple one-to-one binding) turned out to be 23.1 nM; the off-rate constant (koff) (in general, the first-order rate constant of dissociation) is 0.00171 s⁻¹; the on-rate (kon) (commonly a measure of how fast the partners come together) turned out to be 47900 M⁻¹ s⁻¹. Moreover, in assay [2], the Kd was 33.3 nM, the dissociation rate constant (koff) worked out at 0.00108 s⁻¹ and the association rate constant (kon) turned out to be 32400 M⁻¹ s⁻¹.

For IgG1, the Kd stood at 4.87 nM in assay [3] and 17.7 nM in assay [4].

Consider “IgG2A (control protein, Example 11) (antibody)”, for which, in assay [5], the Kd was 8.08 nM, the koff turned out to be 0.0242 s⁻¹ and the kon was determined as 3e+06 M⁻¹ s⁻¹.

“OX40L-Fc (recombinant control protein, Example 11) (Fc fusion)”: in assay [6], the Kd worked out at 1.06 nM, the off-rate constant (koff) was 0.000712 s⁻¹ and the kon came to 674000 M⁻¹ s⁻¹.
